Test results taken from the supplement of paper PMC6755084.

B1: F1*; the commonest letter at each place (parent)
chain: GAGACCGCAACTGAAAAGTTGTTATCACTTGTCGTAAGACACTTTGGATGGGTTGAAGTTCTGCACGTAGAAGCAAAAGGC

Variants of: B1
Experiment: fraction ligated after 30 min (ligated reads / total reads); higher = more ligase activity
Settings: with F1*sub RNA substrate (template-directed ligation), 42 °C
In short: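 Oligo-pool templates of ligase ribozyme variants were PCR-amplified, T7-transcribed and gel-purified. Ligated and unligated bands were gel-separated, reverse transcribed with barcoded primers, and MiSeq-sequenced; core bases were filtered at quality ≥20. Fraction ligated per variant was ligated reads over total reads.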
For T29C G38C, the fraction ligated was 0.828.
In the case of T29C G38A, the fraction ligated is reported as 0.803.
T29C G38T showed a fraction ligated of 0.816.
Work on T29G T44C yielded a fraction ligated of 0.795.
T29G T44A showed a fraction ligated of 0.848.
T29G T44G was tested, and the fraction ligated was 0.791.
T29A C42G gave a fraction ligated of 0.867.
T29A C42A was tested, and the fraction ligated was 0.86.
T29A C42T was tested, and the fraction ligated was 0.826.
T29A G50C was tested, and the fraction ligated was 0.195.
T29A G50T gave a fraction ligated of 0.585.
Work on T29A G50A yielded a fraction ligated of 0.295.
T29G T43G gave a fraction ligated of 0.777.
Variant T29G T43C has a fraction ligated of 0.817.
T29G T43A gave a fraction ligated of 0.826.
T29C A41G gave a fraction ligated of 0.766.
With T29C A41T the fraction ligated was 0.788.
Work on T29C A41C yielded a fraction ligated of 0.768.
In the case of T30A T35C, the fraction ligated is reported as 0.816.
Variant T30A T35A has a fraction ligated of 0.839.
T30A T35G was tested, and the fraction ligated was 0.827.
With C28T G34T the fraction ligated was 0.802.
C28T G34C was tested, and the fraction ligated was 0.79.
In the case of C28T G34A, the fraction ligated is reported as 0.814.
With T29C T35C the fraction ligated was 0.801.
With T29C T35A the fraction ligated was 0.843.
For T29C T35G, the fraction ligated was 0.831.
Work on C28T T35C yielded a fraction ligated of 0.789.
C28T T35A gave a fraction ligated of 0.802.
Variant C28T T35G has a fraction ligated of 0.785.
Variant T30A A39C has a fraction ligated of 0.777.
With T30A A39G the fraction ligated was 0.805.
For T30A A39T, the fraction ligated was 0.81.
Work on C28T C33A yielded a fraction ligated of 0.816.
Variant C28T C33T has a fraction ligated of 0.822.
C28T C33G showed a fraction ligated of 0.809.
T29C G47T showed a fraction ligated of 0.508.
T29C G47C showed a fraction ligated of 0.264.
T29C G47A was tested, and the fraction ligated was 0.793.
Variant T29A T45A has a fraction ligated of 0.774.
T29A T45C gave a fraction ligated of 0.651.
Work on T29A T45G yielded a fraction ligated of 0.475.
T30A C40T was tested, and the fraction ligated was 0.825.
With T30A C40G the fraction ligated was 0.803.
In the case of T30A C40A, the fraction ligated is reported as 0.845.
T29G was tested, and the fraction ligated was 0.829.
T29A showed a fraction ligated of 0.848.
In the case of T29C, the fraction ligated is reported as 0.824.
Variant T29A A57T has a fraction ligated of 0.813.
T29A A57G gave a fraction ligated of 0.818.
T29A A57C showed a fraction ligated of 0.818.
In the case of C28T T49A, the fraction ligated is reported as 0.743.
For C28T T49C, the fraction ligated was 0.749.
With C28T T49G the fraction ligated was 0.811.
For C28T T43A, the fraction ligated was 0.803.
C28T T43C was tested, and the fraction ligated was 0.781.
C28T T43G was tested, and the fraction ligated was 0.8.
In the case of T29A G46A, the fraction ligated is reported as 0.808.
For T29A G46T, the fraction ligated was 0.793.
T29A G46C was tested, and the fraction ligated was 0.779.
Variant T29C C40G has a fraction ligated of 0.824.
T29C C40T showed a fraction ligated of 0.818.
In the case of T29C C40A, the fraction ligated is reported as 0.791.
With T29C A37C the fraction ligated was 0.828.
Work on T29C A37G yielded a fraction ligated of 0.824.
With T29C A37T the fraction ligated was 0.833.
Work on T29G A37G yielded a fraction ligated of 0.832.
T29G A37C showed a fraction ligated of 0.814.
In the case of T29G A37T, the fraction ligated is reported as 0.828.
T29C A39G was tested, and the fraction ligated was 0.824.
T29C A39C was tested, and the fraction ligated was 0.819.
For T29C A39T, the fraction ligated was 0.807.
T29G A39T was tested, and the fraction ligated was 0.822.
T29G A39G was tested, and the fraction ligated was 0.819.
T29G A39C was tested, and the fraction ligated was 0.822.
Variant T29A G38A has a fraction ligated of 0.85.
T29A G38C showed a fraction ligated of 0.851.
T29A G38T was tested, and the fraction ligated was 0.87.
T29A T49G showed a fraction ligated of 0.789.
With T29A T49C the fraction ligated was 0.66.
For T29A T49A, the fraction ligated was 0.784.
Work on T30A A56G yielded a fraction ligated of 0.797.
In the case of T30A A56C, the fraction ligated is reported as 0.773.
With T30A A56T the fraction ligated was 0.81.
Work on C28T T45C yielded a fraction ligated of 0.284.
C28T T45G showed a fraction ligated of 0.0616.
For C28T T45A, the fraction ligated was 0.532.
Variant T29G T32C has a fraction ligated of 0.809.
Variant T29G T32A has a fraction ligated of 0.821.
In the case of T29G T32G, the fraction ligated is reported as 0.832.
For T29C T43A, the fraction ligated was 0.839.
For T29C T43G, the fraction ligated was 0.815.
With T29C T43C the fraction ligated was 0.802.
Work on T29C G31A yielded a fraction ligated of 0.796.
Variant T29C G31T has a fraction ligated of 0.755.
T29C G31C showed a fraction ligated of 0.804.
In the case of T29C C33G, the fraction ligated is reported as 0.827.
Work on T29C C33A yielded a fraction ligated of 0.824.
T29C C33T gave a fraction ligated of 0.816.
With T29A A56T the fraction ligated was 0.827.
For T29A A56G, the fraction ligated was 0.789.
Variant T29A A56C has a fraction ligated of 0.799.
T29A G55A showed a fraction ligated of 0.84.
T29A G55T gave a fraction ligated of 0.788.
T29A G55C was tested, and the fraction ligated was 0.79.
C28T C42G gave a fraction ligated of 0.813.
C28T C42T was tested, and the fraction ligated was 0.819.
C28T C42A showed a fraction ligated of 0.805.
T30A G34C was tested, and the fraction ligated was 0.781.
T30A G34T showed a fraction ligated of 0.802.
T30A G34A gave a fraction ligated of 0.833.
For T29C A56T, the fraction ligated was 0.795.
With T29C A56C the fraction ligated was 0.758.
T29C A56G was tested, and the fraction ligated was 0.788.
T29C T32A was tested, and the fraction ligated was 0.804.
With T29C T32C the fraction ligated was 0.764.
For T29C T32G, the fraction ligated was 0.794.
Work on T29C G55T yielded a fraction ligated of 0.765.
T29C G55A gave a fraction ligated of 0.815.
In the case of T29C G55C, the fraction ligated is reported as 0.638.
For T30A, the fraction ligated was 0.855.
Variant T29C G46C has a fraction ligated of 0.775.
In the case of T29C G46T, the fraction ligated is reported as 0.779.
In the case of T29C G46A, the fraction ligated is reported as 0.804.
Work on T29A T32C yielded a fraction ligated of 0.774.
Work on T29A T32A yielded a fraction ligated of 0.869.
T29A T32G was tested, and the fraction ligated was 0.842.
Work on T30A A48C yielded a fraction ligated of 0.741.
T30A A48G gave a fraction ligated of 0.806.
Variant T30A A48T has a fraction ligated of 0.671.
T29C A57G gave a fraction ligated of 0.855.
T29C A57C gave a fraction ligated of 0.797.
Variant T29C A57T has a fraction ligated of 0.774.
For T29C T49A, the fraction ligated was 0.62.
With T29C T49C the fraction ligated was 0.104.
In the case of T29C T49G, the fraction ligated is reported as 0.66.
T30A A41C showed a fraction ligated of 0.797.
Work on T30A A41T yielded a fraction ligated of 0.859.
T30A A41G showed a fraction ligated of 0.798.
Variant T29A A48T has a fraction ligated of 0.801.
Variant T29A A48C has a fraction ligated of 0.761.
With T29A A48G the fraction ligated was 0.803.
T29G G55T showed a fraction ligated of 0.792.
T29G G55A showed a fraction ligated of 0.79.
T29G G55C gave a fraction ligated of 0.584.
T29G G46T gave a fraction ligated of 0.805.
With T29G G46A the fraction ligated was 0.832.
With T29G G46C the fraction ligated was 0.786.
In the case of C28T G46C, the fraction ligated is reported as 0.8.
For C28T G46A, the fraction ligated was 0.802.
For C28T G46T, the fraction ligated was 0.788.
Work on T29A A37C yielded a fraction ligated of 0.849.
For T29A A37G, the fraction ligated was 0.839.
T29A A37T was tested, and the fraction ligated was 0.848.
C28T T29G was tested, and the fraction ligated was 0.825.
With C28T T29A the fraction ligated was 0.823.
With C28T T29C the fraction ligated was 0.789.
T30A A37T was tested, and the fraction ligated was 0.832.
For T30A A37G, the fraction ligated was 0.87.
T30A A37C was tested, and the fraction ligated was 0.831.
T30A G46T gave a fraction ligated of 0.805.
T30A G46A was tested, and the fraction ligated was 0.809.
T30A G46C was tested, and the fraction ligated was 0.795.
Variant T29A T43C has a fraction ligated of 0.804.
T29A T43G was tested, and the fraction ligated was 0.85.
With T29A T43A the fraction ligated was 0.84.
T29G G47A showed a fraction ligated of 0.816.
